Bridges are numbered along the chain shown (N, C = ends). [ ]: non-standard residue; d: D form. hLeu = CC(C)CC[C@H](N)C(=O)O; Orn = NCCC[C@H](N)C(=O)O; PEG1 = NCCOCCC(=O)O; AEA = NCCOCC(=O)O

The target of the assay is T1, IL23R_huFC (human, UniProt Q5VWK5 24-353).
T1 sequence (looked up): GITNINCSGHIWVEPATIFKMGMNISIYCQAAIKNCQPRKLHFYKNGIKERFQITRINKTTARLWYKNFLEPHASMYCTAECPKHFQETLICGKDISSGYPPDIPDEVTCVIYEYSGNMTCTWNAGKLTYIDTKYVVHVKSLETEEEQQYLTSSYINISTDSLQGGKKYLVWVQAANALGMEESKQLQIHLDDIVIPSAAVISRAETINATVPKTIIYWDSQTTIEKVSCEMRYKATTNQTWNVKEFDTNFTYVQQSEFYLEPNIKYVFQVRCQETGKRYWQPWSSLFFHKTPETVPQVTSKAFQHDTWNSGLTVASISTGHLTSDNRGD
Kind of assay: IL23-IL23R competitive ELISA. For orientation: An ELISA detects its analyte on a solid surface through an enzyme-linked reagent.

B1: Ac-CQTWQCYWRTNG-[AEA]-[(D)-Lys]-NH2 (peptide)
peptide: Ac-CQTWQCYWRTNG[AEA][dK]-NH2
modifications: disulfide 1-6
SMILES: CC(=O)N[C@H]1CSSC[C@@H](C(=O)N[C@@H](Cc2ccc(O)cc2)C(=O)N[C@@H](Cc2c[nH]c3ccccc23)C(=O)N[C@@H](CCCNC(=N)N)C(=O)N[C@H](C(=O)N[C@@H](CC(N)=O)C(=O)NCC(=O)NCCOCC(=O)N[C@H](CCCCN)C(N)=O)[C@@H](C)O)NC(=O)[C@H](CCC(N)=O)NC(=O)[C@H](Cc2c[nH]c3ccccc23)NC(=O)[C@H]([C@@H](C)O)NC(=O)[C@H](CCC(N)=O)NC1=O
As for B1, the IC50 (as a rule, the concentration that inhibits the measured activity by half) is below 500 nM.

B2: Ac-CQTWVCYWRENG-[AEA]-[(D)-Lys]-NH2 (peptide)
peptide: Ac-CQTWVCYWRENG[AEA][dK]-NH2
modifications: disulfide 1-6
SMILES: CC(=O)N[C@H]1CSSC[C@@H](C(=O)N[C@@H](Cc2ccc(O)cc2)C(=O)N[C@@H](Cc2c[nH]c3ccccc23)C(=O)N[C@@H](CCCNC(=N)N)C(=O)N[C@@H](CCC(=O)O)C(=O)N[C@@H](CC(N)=O)C(=O)NCC(=O)NCCOCC(=O)N[C@H](CCCCN)C(N)=O)NC(=O)[C@H](C(C)C)NC(=O)[C@H](Cc2c[nH]c3ccccc23)NC(=O)[C@H]([C@@H](C)O)NC(=O)[C@H](CCC(N)=O)NC1=O
The molecule B2 returned an IC50 below 500 nM.

B3: Ac-CRTWQCYWRKFG-[AEA]-[(D)-Lys]-NH2 (peptide)
peptide: Ac-CRTWQCYWRKFG[AEA][dK]-NH2
modifications: disulfide 1-6 (inferred)
In turn, B3 registered an IC50 below 500 nM.

B4: Ac-CRDWQCYWHKFG-[AEP]-[(D)Lys]-OH (peptide)
peptide: Ac-CRDWQCYWHKFG[PEG1][dK]-OH
modifications: disulfide 1-6
SMILES: CC(=O)N[C@H]1CSSC[C@@H](C(=O)N[C@@H](Cc2ccc(O)cc2)C(=O)N[C@@H](Cc2c[nH]c3ccccc23)C(=O)N[C@@H](Cc2c[nH]cn2)C(=O)N[C@@H](CCCCN)C(=O)N[C@@H](Cc2ccccc2)C(=O)NCC(=O)NCCOCCC(=O)N[C@H](CCCCN)C(=O)O)NC(=O)[C@H](CCC(N)=O)NC(=O)[C@H](Cc2c[nH]c3ccccc23)NC(=O)[C@H](CC(=O)O)NC(=O)[C@H](CCCNC(=N)N)NC1=O
B4 displayed an IC50 below 500 nM.

B5: Ac-CQTWQCYWRTNG-[AEA]-[(D)-Lys]-NH2 (peptide)
peptide: Ac-CQTWQCYWRTNG[AEA][dK]-NH2
modifications: disulfide 1-6
SMILES: CC(=O)N[C@H]1CSSC[C@@H](C(=O)N[C@@H](Cc2ccc(O)cc2)C(=O)N[C@@H](Cc2c[nH]c3ccccc23)C(=O)N[C@@H](CCCNC(=N)N)C(=O)N[C@H](C(=O)N[C@@H](CC(N)=O)C(=O)NCC(=O)NCCOCC(=O)N[C@H](CCCCN)C(N)=O)[C@@H](C)O)NC(=O)[C@H](CCC(N)=O)NC(=O)[C@H](Cc2c[nH]c3ccccc23)NC(=O)[C@H]([C@@H](C)O)NC(=O)[C@H](CCC(N)=O)NC1=O
In the case of B5, the IC50 was below 500 nM.

B6: Ac-CQTWVCYWRENG-[AEA]-[(D)-Lys]-NH2 (peptide)
peptide: Ac-CQTWVCYWRENG[AEA][dK]-NH2
modifications: disulfide 1-6
SMILES: CC(=O)N[C@H]1CSSC[C@@H](C(=O)N[C@@H](Cc2ccc(O)cc2)C(=O)N[C@@H](Cc2c[nH]c3ccccc23)C(=O)N[C@@H](CCCNC(=N)N)C(=O)N[C@@H](CCC(=O)O)C(=O)N[C@@H](CC(N)=O)C(=O)NCC(=O)NCCOCC(=O)N[C@H](CCCCN)C(N)=O)NC(=O)[C@H](C(C)C)NC(=O)[C@H](Cc2c[nH]c3ccccc23)NC(=O)[C@H]([C@@H](C)O)NC(=O)[C@H](CCC(N)=O)NC1=O
Regarding B6, the IC50 was below 500 nM.

B7: Ac-CEDWKCYWHKYG-NH2 (peptide)
peptide: Ac-CEDWKCYWHKYG-NH2
modifications: disulfide 1-6 (inferred)
On to B7, for which the IC50 was below 500 nM.

B8: Ac-CADWVCYWHTFG-[β-Ala]-[(D)Lys]-OH (peptide)
peptide: CADWVCYWHTFGAK
modifications: Ac-; [β-Ala]; [(D)Lys]; disulfide
With B8, the IC50 is below 500 nM.

B9: Ac-CADWVCYWHTFGP-[(D)Lys]-OH (peptide)
peptide: Ac-CADWVCYWHTFGP[dK]-OH
modifications: disulfide 1-6 (inferred)
For B9, the IC50 is below 500 nM.

B10: Ac-CQTWQCYWR-[Dapa]-NG-[AEA]-[(D)-Lys]-NH2 (peptide)
peptide: CQTWQCYWRXNGXK
modifications: Ac-; [Dapa]; [AEA]; [(D)-Lys]; -NH2; disulfide
In turn, B10 returned an IC50 below 500 nM.

B11: Ac-CQTWQCYWR-[Orn]-NG-[AEA]-[(D)-Lys]-NH2 (peptide)
peptide: Ac-CQTWQCYWR[Orn]NG[AEA][dK]-NH2
modifications: disulfide 1-6
SMILES: CC(=O)N[C@H]1CSSC[C@@H](C(=O)N[C@@H](Cc2ccc(O)cc2)C(=O)N[C@@H](Cc2c[nH]c3ccccc23)C(=O)N[C@@H](CCCNC(=N)N)C(=O)N[C@@H](CCCN)C(=O)N[C@@H](CC(N)=O)C(=O)NCC(=O)NCCOCC(=O)N[C@H](CCCCN)C(N)=O)NC(=O)[C@H](CCC(N)=O)NC(=O)[C@H](Cc2c[nH]c3ccccc23)NC(=O)[C@H]([C@@H](C)O)NC(=O)[C@H](CCC(N)=O)NC1=O
Take B11: the IC50 is below 500 nM.

B12: Hy-CRDWQCYWHKFG-NH2 (peptide)
peptide: H-CRDWQCYWHKFG-NH2
modifications: disulfide 1-6 (inferred)
B12: the IC50 was below 500 nM.

B13: Ac-CADWVCYWHTYG-NH2 (peptide)
peptide: Ac-CADWVCYWHTYG-NH2
modifications: disulfide 1-6 (inferred)
For B13, the IC50 is below 500 nM.

B14: Ac-CTDWVCYWHTFG-NH2 (peptide)
peptide: Ac-CTDWVCYWHTFG-NH2
modifications: disulfide 1-6 (inferred)
B14 returned an IC50 below 500 nM.

B15: Ac-CADWVCYWHTFGER-NH2 (peptide)
peptide: Ac-CADWVCYWHTFGER-NH2
modifications: disulfide 1-6 (inferred)
Molecule B15 registered an IC50 below 500 nM.

B16: Ac-CADWVCYWHTHGER-NH2 (peptide)
peptide: Ac-CADWVCYWHTHGER-NH2
modifications: disulfide 1-6 (inferred)
B16: the IC50 was below 500 nM.

B17: Ac-CTTWTCYWHQYG-NH2 (peptide)
peptide: Ac-CTTWTCYWHQYG-NH2
modifications: disulfide 1-6 (inferred)
Molecule B17 registered an IC50 below 500 nM.

B18: Ac-CADWVCYWHTFGAA[(D)Lys]-OH (peptide)
peptide: Ac-CADWVCYWHTFGAA[dK]-OH
modifications: disulfide 1-6 (inferred)
Molecule B18 returned an IC50 below 500 nM.

B19: Ac-CQTWQCYWRENG-NH2 (peptide)
peptide: Ac-CQTWQCYWRENG-NH2
modifications: disulfide 1-6 (inferred)
B19 registered an IC50 below 500 nM.

B20: Ac-CQTWQCYWR-[K-Ac]-NG-NH2 (peptide)
peptide: Ac-CQTWQCYWRK(Ac)NG-NH2
modifications: disulfide 1-6 (inferred)
B20 had an IC50 below 500 nM.

B21: Ac-CQTWQCYWLENG-NH2 (peptide)
peptide: Ac-CQTWQCYWLENG-NH2
modifications: disulfide 1-6 (inferred)
B21 registered an IC50 below 500 nM.

B22: Ac-CQTWQCYW[-hLeu]-ENG-NH2 (peptide)
peptide: Ac-CQTWQCYW[hLeu]ENG-NH2
modifications: disulfide 1-6 (inferred)
Regarding B22, the IC50 is below 500 nM.

B23: Ac-CADWVCYWHTFGA-[(D)Lys]-OH (peptide)
peptide: Ac-CADWVCYWHTFGA[dK]-OH
modifications: disulfide 1-6 (inferred)
Turning to B23, the IC50 is below 500 nM.

B24: Ac-CKTWTCYWHEFG-NH2 (peptide)
peptide: Ac-CKTWTCYWHEFG-NH2
modifications: disulfide 1-6 (inferred)
Molecule B24 showed an IC50 below 500 nM.

B25: Ac-CADWVCYWHRHADRVK-NH2 (peptide)
peptide: Ac-CADWVCYWHRHADRVK-NH2
modifications: disulfide 1-6 (inferred)
On to B25, for which the IC50 is below 500 nM.

B26: Ac-DTPRCRTWECYWHTFG-NH2 (peptide)
peptide: Ac-DTPRCRTWECYWHTFG-NH2
modifications: disulfide 5-10 (inferred)
Turning to B26, the IC50 was below 500 nM.

B27: Ac-CADWVCYWHTFG-OH (peptide)
peptide: Ac-CADWVCYWHTFG-OH
modifications: disulfide 1-6 (inferred)
Turning to B27, the IC50 is below 500 nM.

B28: Ac-CRTWECYWHEQS-NH2 (peptide)
peptide: Ac-CRTWECYWHEQS-NH2
modifications: disulfide 1-6 (inferred)
For B28, the IC50 was below 500 nM.

B29: Hy-CSNWVCYWHTYG-NH2 (peptide)
peptide: H-CSNWVCYWHTYG-NH2
modifications: disulfide 1-6 (inferred)
B29 showed an IC50 below 500 nM.

B30: Ac-CQTWECYWHLYG-NH2 (peptide)
peptide: Ac-CQTWECYWHLYG-NH2
modifications: disulfide 1-6 (inferred)
Molecule B30 displayed an IC50 below 500 nM.

B31: Ac-CRTWECYWHEYG-NH2 (peptide)
peptide: Ac-CRTWECYWHEYG-NH2
modifications: disulfide 1-6 (inferred)
Molecule B31 returned an IC50 below 500 nM.

B32: Ac-CRTWQCYWHEYG-NH2 (peptide)
peptide: Ac-CRTWQCYWHEYG-NH2
modifications: disulfide 1-6 (inferred)
The molecule B32 showed an IC50 below 500 nM.

B33: Ac-CTTWECYWHEYG-NH2 (peptide)
peptide: Ac-CTTWECYWHEYG-NH2
modifications: disulfide 1-6 (inferred)
Molecule B33 showed an IC50 below 500 nM.

B34: Ac-CTTWECYWHEFG-NH2 (peptide)
peptide: Ac-CTTWECYWHEFG-NH2
modifications: disulfide 1-6 (inferred)
B34: the IC50 was below 500 nM.

B35: Ac-CTTWECYWHQFG-NH2 (peptide)
peptide: Ac-CTTWECYWHQFG-NH2
modifications: disulfide 1-6 (inferred)
B35 yielded a concentration for half-maximal inhibition (IC50) below 500 nM.

B36: Ac-CRTWECYWHEFG-NH2 (peptide)
peptide: Ac-CRTWECYWHEFG-NH2
modifications: disulfide 1-6 (inferred)
Molecule B36 registered an IC50 below 500 nM.

B37: Ac-CATWQCYWHEYG-NH2 (peptide)
peptide: Ac-CATWQCYWHEYG-NH2
modifications: disulfide 1-6 (inferred)
Consider B37, for which the IC50 was below 500 nM.

Values taken from patent US20190300590A1 (PROTAGONIST THERAPEUTICS, published 2019).
